Test [1] deals with T1, Macaque 46 mer peptide (RB exon of macaque CD45RB) (macaque).
T1 construct: synthetic peptide
T1 peptide: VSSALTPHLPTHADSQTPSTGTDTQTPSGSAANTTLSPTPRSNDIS
Briefly: ELISA, well supernatant on coated peptide. (ELISA stands for enzyme-linked immunosorbent assay.)

Test [2] deals with T2, Human 46 mer peptide (RB exon of human CD45) (human).
T2 construct: synthetic peptide; also called CD45RB 46 mer
T2 peptide: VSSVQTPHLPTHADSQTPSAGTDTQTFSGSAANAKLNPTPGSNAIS
Kind of test: ELISA, well supernatant on coated peptide.

Test [3] deals with T3, Human 20.1 peptide (human).
T3 construct: synthetic peptide from the RB exon
T3 peptide: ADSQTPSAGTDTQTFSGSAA
Briefly: ELISA, well supernatant on coated peptide.

The target in test [4] is T1, Macaque 46 mer peptide (RB exon of …). Kind of test: recombinant antibody on peptide.
Test [5] concerns the target T2, Human 46 mer peptide (RB exon of human …). Briefly: recombinant antibody on peptide.
For another test, the target named is T4, Human 20.2 peptide (human).
T4 construct: synthetic peptide from the RB exon
T4 peptide: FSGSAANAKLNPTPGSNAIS
Kind of test: recombinant antibody on peptide.

In the next test the target is T5, Human 18 mer peptide (human).
T5 construct: synthetic peptide from the RB exon
T5 peptide: VSSVQTPHLPTHADSQTPC
Briefly: recombinant antibody on peptide.

Test [6] addresses T3, Human 20.1 peptide. Briefly: recombinant antibody on peptide.
Test [7] deals with T1, Macaque 46 mer peptide (RB exon of …). Kind of test: ELISA, well supernatant on coated peptide.
The target in test [8] is T2, Human 46 mer peptide (RB exon of human …). Briefly: ELISA, well supernatant on coated peptide.
The target of test [9] is T3, Human 20.1 peptide. Briefly: ELISA, well supernatant on coated peptide.
For test [10], the target named is T6, chimeric CD45RB (full length human CD45RB with the macaque RB exon) transiently expressed in CHO cells (human; macaque, UniProt P08575-9 26-33; P08575-9 81-1192).
T6 construct: whole chimeric protein on CHO cells; also called Macaque CD45RB CHO
T6 sequence: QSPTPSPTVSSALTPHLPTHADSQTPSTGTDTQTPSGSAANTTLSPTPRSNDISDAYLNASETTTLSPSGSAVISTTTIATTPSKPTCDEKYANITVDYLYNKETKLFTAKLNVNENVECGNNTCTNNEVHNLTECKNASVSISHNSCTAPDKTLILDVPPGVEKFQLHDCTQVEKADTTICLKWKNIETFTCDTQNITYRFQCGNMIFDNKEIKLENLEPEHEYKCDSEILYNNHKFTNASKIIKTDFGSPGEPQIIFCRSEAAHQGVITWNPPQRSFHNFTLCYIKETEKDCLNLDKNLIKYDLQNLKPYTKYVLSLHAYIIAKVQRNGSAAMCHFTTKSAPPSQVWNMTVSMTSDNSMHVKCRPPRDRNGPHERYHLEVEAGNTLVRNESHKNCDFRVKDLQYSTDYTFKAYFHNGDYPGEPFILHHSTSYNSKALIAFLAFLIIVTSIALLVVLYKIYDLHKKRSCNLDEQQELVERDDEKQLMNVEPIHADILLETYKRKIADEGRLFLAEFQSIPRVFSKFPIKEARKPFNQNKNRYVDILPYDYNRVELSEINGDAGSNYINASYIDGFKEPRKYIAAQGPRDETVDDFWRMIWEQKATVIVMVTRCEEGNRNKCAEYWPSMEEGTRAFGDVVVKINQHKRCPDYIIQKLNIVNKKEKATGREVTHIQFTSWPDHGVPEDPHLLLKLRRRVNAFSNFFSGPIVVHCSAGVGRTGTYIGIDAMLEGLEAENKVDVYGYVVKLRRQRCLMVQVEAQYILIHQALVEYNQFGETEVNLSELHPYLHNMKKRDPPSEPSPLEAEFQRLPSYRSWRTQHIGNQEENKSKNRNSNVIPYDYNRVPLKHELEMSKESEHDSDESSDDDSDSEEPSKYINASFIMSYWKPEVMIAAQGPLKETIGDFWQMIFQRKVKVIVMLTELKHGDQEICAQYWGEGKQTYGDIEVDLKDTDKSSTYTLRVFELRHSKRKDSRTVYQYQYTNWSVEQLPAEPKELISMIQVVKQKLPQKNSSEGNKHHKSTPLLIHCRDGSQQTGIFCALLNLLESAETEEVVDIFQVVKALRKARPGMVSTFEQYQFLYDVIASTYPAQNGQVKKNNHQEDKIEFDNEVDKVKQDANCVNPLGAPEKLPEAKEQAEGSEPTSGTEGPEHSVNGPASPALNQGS
Briefly: transiently transfected CHO cells.

The source of these data is US20030232009A1 (Amgen, published 2003).

Like-named read-outs stand apart in the source and are kept apart here.

B1: antibody in the supernatant of B cell culture well 227E10 (antibody, V domains shown)
VH: QVHLVESGGGLVKPGGSLRLSCAASGFTFINYYMTWIRQAPGKGLEWVSYISLSGSTIYYADSVKGRFTISRDNAKNSLFLQMNSLRAEDTAVYYCARRAATVTTFDYWGQGTLVTVSS
VL: EIVMTQSPATLSVSPGERATLSCRASQSVRSNLAWSQQKPGQAPRLLIYGASTRATGIPARFSGSGSGTEFTLTISSLQSEDFAVYYCQQYNNWPLTFGGGTKVEIK
For the molecule B1, the ELISA reading in test [1] was 0.2; in test [2] it was 0.2; in the test with Human 20.1 peptide [3], 0.1.

B2: AB-CD45RB-XG2-662 (antibody, human IgG2, V domains shown)
VH: QVQLVESGGDLVKPGGSLRLSCAASGFSFSGYYLSWIRQAPGKGLEWVSYISLSGSFIKYADSVKGRFTISRDNAKKTLHLQMNSLRAEDTAVYYCARRTGTTTVFDYWGQGTLVTVSS
VL: EVVMTQSPATLSVSPGERATLSCRASQSVNSNLAWYQQRPGQAPRLLIYGASTRVTGIPARFSGSGSGTEFTLTISSLQSEDFAVYYCQQYNNWPLTFGGGTKVEIK
notes: recombinant human IgG2 kappa; also called sc662
B2: the binding result (in test [4]; in test [5]; in the test with Human 20.2 peptide; with Human 18 mer peptide; in the test with Human 20.1 peptide [6]) was “no binding” throughout.

B3: antibody in the supernatant of B cell culture well 250F2 (antibody, V domains shown)
VH: QVQLVESGGDLVKPGGSLRLSCAASGFSFSGYYLSWIRQAPGKGLEWVSYISLSGSFIKYADSVKGRFTISRDNAKKTLHLQMNSLRAEDTAVYYCARRTGTTTVFDYWGQGTLVTVSS
VL: EVVMTQSPATLSVSPGERATLSCRASQSVNSNLAWYQQRPGQAPRLLIYGASTRVTGIPARFSGSGSGTEFTLTISSLQSEDFAVYYCQQYNNWPLTFGGGTKVEIK
notes: recombinant 662 came from this well
As for B3, the values for the ELISA reading (in test [1]; in test [2]; with Human 20.1 peptide [3]) were 0.2, 0.2 and 0.1, respectively.

B4: antibody in the supernatant of B cell culture well 283B2 (antibody, V domains shown)
VH: QVQLVESGGGLVKPGGSLRLSCAASGFTFNVYYMNWIRQAPGKGLEWVSYISTSSSAIYYADSVKGRFTISRDNAKNSLYLQMNSLRAEDTAVYYCARRTGSTTVFDYWGQGTLVTVSS
VL: EIVLTQSPATLSVSPGERATLSCRASQSINNNLAWYQQKPGQAPRLLIYGASTRATGIPAKFSGSGSGTEFTLTISSLQSENFAVYYCQQYNKWPLTFGGGTKVEIK
notes: recombinant 648 came from this well
For the molecule B4, the ELISA reading in test [1] was found to be 0.2; in test [2] it was 0.2; with Human 20.1 peptide [3], 0.1.

B5: antibody in the supernatant of B cell culture well 170B8 (antibody, V domains shown)
VH: AVQLLESGGGLIQPGGSLRLSCAASGFTFSSYAMSWVRQAPGKGLEWVSAISGSGGSTFYADSVRGRFTISRDNSKNTLYLQMNSLRVEDTAVYYCAKEVMGPIFFDYWGQGTLVTVSS
VL: EIVLTQSPGTLSLSPGERATLSCRASQSIISSALAWYQQKPGQAPRLLIYGASSRATGIPDRFSGSGSGTDFTLTISRLEPEDFAVYHCQQYGSTPLTFGGGTKVEIK
notes: recombinant 475 came from this well
For B5, the ELISA reading in test [7] stood at 0.8; in test [8], 2.5; in the test with Human 20.1 peptide [9] it was 3.9.

B6: AB-CD45RB-XG2-556 (antibody, human IgG2, V domains shown)
VH: QVQLQESGPGLVKPSETLSLTCTVSGGSISGYYWSWIRQPAGKGLEWIGRIHTTGKTAYNPSLKSRVIMSVDTSKNLFSLKLTSVTAADTAVYYCARDYDFLTGYFDYWGQGTLVTVSS
VL: DVVMTQSPLSLPVTLGQPASISCRSSQSLVYSDGNTYLNWFQQRPGHSPRRLIYKVSNWDSGVPDRFSGSGSGTDFTLKISRVEAEDVGIYYCMQGTHWPPTFGQGTRVEIK
notes: recombinant human IgG2 kappa; also called sc556
Regarding B6, the binding result (in [10]; in [4]; in [5]; with Human 20.2 peptide) was “no binding” each time.

B7: AB-CD45RB-XG2-539 (antibody, human IgG2, V domains shown)
VH: QVQLQESGPGLVKPSETLSLTCTVSGGSISGSYWSWIRQPAGKGLEWIGRIHSTGKTAYNPSLKSRVIMSLDTSKNLFSLKLTSVTAADTAVYYCARDYDFLTGYFDYWGQGTLVTVSS
VL: DVVMTQSPLSLPVTLGQPASISCRSSQSLVYGDGNTYLNWFQQRPGHSPRRLIYKVSNWDSGVPDRFSGSGSGTDFTLKISRVEAEDVGIYYCMQGTHWPPTFGQGTRVEIK
notes: recombinant human IgG2 kappa; also called sc539
As to B7, the binding result (in test [10]; in [4]; in test [5]; with Human 20.2 peptide) was “no binding” throughout.

B8: antibody in the supernatant of B cell culture well 255D9 (antibody, V domains shown)
VH: QVQLVESGGGVVQPGRSLRLSCAASGFTFSNYGMHWVRQAPGKGLEWVAVIWYDGSKKFYADSVKGRFTISRDNFEKTLYLQMNSLRAEDTAVYYCARGGGDFDYWGQGTLVTVSS
VL: EIVMTQSPATLSVSPGERATLSCRASQSLSGSYLAWYQQKPGQAPRLLIYSASTRATGIPARFSGSGSGTEFTLTISSLQSEDFAVYYCQQYNNWPPLTFGGGTKVEIK
notes: recombinant 713 came from this well
Turning to B8, the ELISA reading came out at 0.1 in test [1], 3.5 in [2] and 0.1 with Human 20.1 peptide [3].
